B1: Beta-arrestin-1 (Homo sapiens), P49407 (parent)
chain: MGDKGTRVFKKASPNGKLTVYLGKRDFVDHIDLVDPVDGVVLVDPEYLKERRVYVTLTCAFRYGREDLDVLGLTFRKDLFVANVQSFPPAPEDKKPLTRLQERLIKKLGEHAYPFTFEIPPNLPCSVTLQPGPEDTGKACGVDYEVKAFCAENLEEKIHKRNSVRLVIRKVQYAPERPGPQPTAETTRQFLMSDKPLHLEASLDKEIYYHGEPISVNVHVTNNTNKTVKKIKISVRQYADICLFNTAQYKCPVAMEEADDTVAPSSTFCKVYTLTPFLANNREKRGLALDGKLKHEDTNLASSTLLREGANREILGIIVSYKVKVKLVVSRGGLLGDLASSDVAVELPFTLMHPKPKEEPPHREVPENETPVDTNLIELDTNDDDIVFEDFARQRLKGMKDDKEEEEDGTGSPQLNNR

Variants of: B1
Conditions: with gnas1_human GNAS

| Variant | effect of a mutation on the interaction |
| --- | --- |
| L33K | decreasing interaction |
